Experimental data reported in patent US20110263830A1.

B1: murine 227H1 Mab (antibody, from another filing, mouse IgG1, V domains shown)
VH: EVQLQQSGPELVKPGASMKISCKASGYSFTDYTLNWVKQSHGKTLEWIGLINPYNGGTTYNQKFKGKATLTVDKSSSTAYMELLSLTSEDSAVYYCAREEITKDFDFWGQGTTLTVSS
VL: GIVLTQSPASLAVSLGQRATISCRVSESIDTYGNSFIHWYQQKPGQPPKLLIYRASNLESGIPARFSGSGSRTDFTLTINPVEADDSATYYCQQSNEDPFTFGSGTKLEMK
B2: murine 11E1 Mab (antibody, from another filing, mouse IgG1, V domains shown)
VH: QVQLQQSGAELAKPGASVKMSCKASGYTFTSYWMNWVKQRPGQGLEWIGYINPTTGSTDYNQKLKDKATLTADKSSNTAYMQLSSLTSEDSAVYYCAIGGYGSWFAYWGQGTLVTVSA
VL: QIVLTQSPAIMSASPGEKVTLTCSASSSVSSTYLYWYQQKPGSSPKLWIYTTSILASGVPARFSGSGSGTSYSLTISSMETEDAASYFCHQWSSYPFTFGSGTKLDIK

Target: c-Met receptor (human) (UniProt P08581)
Assay: cell-based or functional assay

Chain of UniProt P08581 (P08581 25-1390): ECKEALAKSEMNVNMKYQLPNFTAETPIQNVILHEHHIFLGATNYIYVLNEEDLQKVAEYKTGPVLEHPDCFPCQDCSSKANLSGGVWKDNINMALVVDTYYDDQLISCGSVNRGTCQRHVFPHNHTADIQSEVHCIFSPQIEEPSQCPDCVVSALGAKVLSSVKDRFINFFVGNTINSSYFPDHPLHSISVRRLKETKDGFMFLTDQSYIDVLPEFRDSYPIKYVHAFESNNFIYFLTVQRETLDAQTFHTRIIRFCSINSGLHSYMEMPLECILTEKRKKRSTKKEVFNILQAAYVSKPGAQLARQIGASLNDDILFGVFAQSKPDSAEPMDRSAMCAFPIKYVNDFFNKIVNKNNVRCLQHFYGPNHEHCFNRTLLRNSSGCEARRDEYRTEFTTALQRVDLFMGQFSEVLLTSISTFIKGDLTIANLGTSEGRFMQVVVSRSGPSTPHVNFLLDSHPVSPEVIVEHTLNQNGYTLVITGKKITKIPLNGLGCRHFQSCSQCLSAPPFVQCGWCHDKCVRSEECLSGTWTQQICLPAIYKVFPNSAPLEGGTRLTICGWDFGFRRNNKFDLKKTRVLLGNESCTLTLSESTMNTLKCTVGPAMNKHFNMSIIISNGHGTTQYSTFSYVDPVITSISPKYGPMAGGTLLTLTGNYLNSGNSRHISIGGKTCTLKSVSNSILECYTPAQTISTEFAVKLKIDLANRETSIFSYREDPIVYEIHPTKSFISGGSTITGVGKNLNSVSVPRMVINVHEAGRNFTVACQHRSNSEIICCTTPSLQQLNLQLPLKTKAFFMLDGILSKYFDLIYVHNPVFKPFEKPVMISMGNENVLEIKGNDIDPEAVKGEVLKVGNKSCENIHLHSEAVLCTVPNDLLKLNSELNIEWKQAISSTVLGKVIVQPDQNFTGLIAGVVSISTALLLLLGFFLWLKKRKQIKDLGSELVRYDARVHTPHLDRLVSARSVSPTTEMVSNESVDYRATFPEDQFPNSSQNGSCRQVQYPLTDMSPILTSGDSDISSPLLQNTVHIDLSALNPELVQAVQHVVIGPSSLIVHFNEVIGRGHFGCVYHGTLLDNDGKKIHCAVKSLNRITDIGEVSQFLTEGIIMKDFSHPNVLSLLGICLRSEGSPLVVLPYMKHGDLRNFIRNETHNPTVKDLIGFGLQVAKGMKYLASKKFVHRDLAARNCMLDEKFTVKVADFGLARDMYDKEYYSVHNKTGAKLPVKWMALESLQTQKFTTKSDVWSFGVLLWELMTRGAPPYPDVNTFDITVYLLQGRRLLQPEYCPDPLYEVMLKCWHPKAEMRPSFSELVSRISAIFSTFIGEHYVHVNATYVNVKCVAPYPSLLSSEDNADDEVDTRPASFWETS

Row | Binder | agonist effect on c-Met receptor phosphorylation, A549 cells (phospho-c-Met ELISA) (% of HGF effect) | inhibition of HGF [100 ng/ml]-induced c-Met receptor phosphorylation, A549 cells (% inhibition of HGF effect) | inhibition of HGF-induced proliferation of NCI-H441 cells ([3H]Thymidine)
1 | B1 | < 5 | > 70 | 80 % inhibition
2 | B2 | < 5 | > 70 | 80 % inhibition
